This passage reports binding results from article PMC6082896.

In the data set the target is T1, OxyR (Pseudomonas aeruginosa (PAO1?)) (UniProt Q9HTL4).
T1 sequence: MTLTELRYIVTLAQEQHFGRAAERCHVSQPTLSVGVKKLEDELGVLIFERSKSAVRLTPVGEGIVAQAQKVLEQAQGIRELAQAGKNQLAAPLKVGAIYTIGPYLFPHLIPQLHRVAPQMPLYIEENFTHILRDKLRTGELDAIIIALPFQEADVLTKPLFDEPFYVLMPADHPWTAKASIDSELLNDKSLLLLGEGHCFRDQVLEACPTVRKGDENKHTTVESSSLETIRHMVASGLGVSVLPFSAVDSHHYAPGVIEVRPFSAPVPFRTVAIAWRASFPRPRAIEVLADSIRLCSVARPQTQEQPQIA
The data set can be described thus: EMSA. Conditions: 20 mM Tris-HCl pH 7.0, 50 mM KCl, 1 mM EDTA, 5% glycerol, 50 ug/ml BSA, 5 ug/ml calf thymus DNA, 0.5 ug/ml poly[dI-dC], 50 ug/ml salmon sperm DNA, 100 mM DTT …. Background: Mobility shift assays separate free from complexed probe on a gel.

Take “AAGTCGGTGATGGCCTCGCCGGCCAGGCGGCGCAGGCGCTTCTGCAGTTTGTTCTGATTGACCGAAAGGGTGCCCATGGTGCTCTGGAATCCGGGTGTTCGAGGAGAAAAGCTGGCTATTTTACGCACAAAGCGACGCCGACCCCAGCCCCTCCCGACGCCCGATGCTAGTCTTGCCCCATGACTCCCGACCTCGACCACCGCCTCGACCT (double strand) [ttcA promoter fragment]”: the binding result is recorded as “binds”.
